The source of these data is a protein production outcome set (Wang et al. 2014).

This data set can be described thus: label from the status in PepcDB records.
Take “MSGQHGHDHSHAVVTQGNAKKLTIALSLTVTFLIVEVVAGFITQSLALLSDAAHMFTDAAALAIALAAIQVAKRPADDKRTFGYQRFEILAALFNASMLFMVAIYILYEAYQRFTHPPEIQSLGMLLVAVIGLIINLISMKILVSSAQDSLNVKGAYLEVLSDALGSVGVILGALVIYFTQWYWVDTLVAVLIGFWVLPRTWILLKQSINILLEGVPEEVDIEKLRDDLLALEGVESIHQLKVWAITSKNVHLTVHLFAPQADRNRLYRTAYEMLSHEHGIAEITLQIEEDECLAHSHTHIEKNHQH”: the protein production entry is reported as “failed”.
As to “MSGREFLQKLLDGERVEWKALGEIIQLEKGRQLNKDLLSSSGRYPAYNGGMSYSGFTDSYNYSENKTIISQGGASAGFVNFVTTKFYANAHCYVVLPDTEVVDNRYIYHFLKLNEERLTSCQHGAGIPALRASEITSLKIPIPCPDNPKKSLAIQAEIVRILDAFTELTAELTAELTARKKQYAYYRDRLLTFTTPPYGHPSKGGELFSLFGHPSEGGELFTPYGHSVEERELNSPSLKGWQAQPDGVVPVEWKTLGEVGHFIRGSGIQKSDFKASGVGCIHYGQIHTHYGTWTTETKSFIDPEFANRLKKAKPGDLVIATTSEDDDAVAKAVAWIGTEDVAVSTDAYIFRHTANPKYMSYFFQTDMFQEQKKPYITGTKVRRISGDNLAKILIPIPPLAEQERIVAILDQFDALTNSLTEGLPREIELRQKQYAYYRDLLFSFPKASFGGVPEGRDQFPSFGGVPEGRGGLNALEHHHHHH”, the protein production entry is “failed”.
The entry for “MSGSAADPPSPDRLAGVFSVSSVRRTDGTVQYLGNPLVPPDAVAEQLRPVFRQRGYDVRLEELGPESATGTTVTSNGETTVVDDPGANDSIAPGGAVNTRPGQYALVAEPVGTDTGGVPWLNIGLLLATIASTLYVGASAWYYIPVAKNPLRVFEAWPFMVAMLGVLGIHELGHYAAARYHGVDVTLPYFIPFPSYLGTMGAVINIRGRIPDRTALFDIGVAGPLAGLVATTIVTVIGLSIDPITVPERVANSDTGVIITFNYPLLFQALEALVNALGLGTEVGPGESVHPIVFAGWAGMFFTFLNLLPVGQLDGGHIVRSIVGRRQETIAAAVPGALFALAGYLYFTRDPPPVGFGVWGLWVFWGLFATGLAYAGPARPTVDTALDRRRALLGLFTFLLGIACFTPVPFEISAV” is “failed”; for “MSGSPGIESVPGPELPKIEFLDRFNAKNQKFYAENDARFKDSPLLKKLLENSKLNKEKNEREIQDKYCLRGAEWGVGDCSTTGMTDEEKEKFITMLKKKTGVE” it is “failed”; for “MSGVKIAFIRHHDLWIKVDGKEKQLTKGEYITGPKWSYDGEWLAYVKGEKQNTLELYRLKDGKKVTPFHSEVSNYQWSPTENIIAFIFTGTLHTFKVEKKNADFENVSAGVGDYAWYPNGKKFLVSSEAHLLPTGWTGAQLYEVQKDAHMNPHKMKHLYALPNEHDDFLALVASGFQWSPDQKWISFLAVPTASWSADSNTLCLVRADGSRFEKVDQMLLNTQWFKWAPANNILAYIEGSGRVALENKHLKVKELPALQQNTFTPKGYVDWDFTWKNDNVIIVSRAKEAGIETPPEKRPLPSLYEIDSTSDEQHRITKPPHRQGDYHPLFMNKSNQLIWIRSDRKKADVWLAHKDGKHEMKWIENIDVPLEHHHHHH” it is “failed”.
Take “MSHLYDPTTQYYTGEYPKQKQPAPGVQAKMTPVPDCGEKSYVGSGRLKDRKALVTGGDSGIGRAAAIAYAREGADVAINYLPAEEEDAQQVKALIEECGRKAVLLPGDLSDESFARSLVHKAREALGGLDILALVAGKQTAIPEIKDLTSEQFQQTFAVNVFALFWITQEAIPLLPKGASIITTSSIQAYQPSPHLLDYAATKAAILNYSRGLAKQVAEKGIRVNIVAPGPIWTALQISGGQTQDKIPQFGQQTPMKRAGQPAELAPVYVYLASQESSYVTAEVHGVCGGEHLG”: the protein production entry is “not failed”.
In the case of “MSHSIEQLSINTIRTLSIDAIEKANSGHPGMPMGAAPMAYTLWTQFMKHNPNNPTWFNRDRFVLSAGHGSMLLYSLLHLSGYDVTMDDLKNFRQWGSKTPGHPEYGHTAGVDATTGPLGQGIATAVGMAMAERHLAAKYNRDAYNIVDHYTYAICGDGDLMEGVSAEASSLAAHLQLGRLVVLYDSNDISLDGDLNRSFSESVEDRYKAYGWQVIRVEDGNDIEAIAKAIEEAKADEKRPTLIEVRTTIGFGSPNKSGKSASHGSPLGVEETKLTKEAYAWTAEQDFHVAEEVYENFRKTVQDVGETAQAEWNTMLGEYAQAYPELANELQAAMNGLLPEGWEQNLPTYELGSKAATRNSSGAVINAIAESVPSFFGGSADLAGSNKTYMNNEKDFTRDDYSGKNIWYGVREFAMGAAMNGIALHGGLKTYGGTFFVFSDYLRPAIRLAALMQLPVTYVFTHDSIAVGEDGPTHEPIEQLAALRAMPNVSVIRPADGNESVAAWRLALESTNKPTALVLTRQDLPTLEGAKDDTYEKVAKGAYVVSASKKETADVILLATGSEVSLAVEAQKALAVDGVDASVVSMPSMDRFEAQTAEYKESVLPKAVTKRFAIEMGATFGWHRYVGLEGDVLGIDTFGASAPGEKIMEEYGFTVENVVRKVKEML” it was “not failed”; in that of “MSHSLKDFLEACETLGTLRLIVTSSAAVLEARGKIEKLFYAELAKGKYANMHTEGFEFHLNMEKITQVKFETGEAKRGNFTTYAIRFLDEKQESALSLFLQWGKPGEYEPGQVEAWHTLKEKYGEVWEPLPVQL”, “not failed”.
Take “MSHTKPSIAILGAGRVGSSLARSAVAAGYEVKVAGSGAVDKIALTAEILMPGAVPSTADQAVKDADIVFLAVPLHKFRSVNPATLEGKIVIDTMNHWVPVNGELEEIDQDPRSTSEIIAEFFAGSTMVKSFNHIGYHEIEQDAGTGRAIAYATDDVDAGAQVAQLIKSFGFVPLNIGALENGRILEPGQEAFGAHLNKDSRLELVNQR”: the protein production result is on record as “failed”.
In the case of “MSHVSYAEPPAQGWDIHCHTVFSDGTETPRTLVEQARKLGLHGVAIADHDTTAGWDEATEASEEIGLPLLLGTEITAVDEDVSVHMLAFQYDPSNEHISSMFANTRAARLRRTKRMVERLSQDFPITWDDVLAQVKEGERTTIGRPHIADALVAAGVYETRSDAFADAVSAKSKYYIPTPSPSTHEVIAAVKGAGGVVVAAHAGDPQRNRRLLSDEQLDAMIADGLDGLEVWHRGNPPEQRERLLTIAARHDLLVTGGSDWHGKGKPNGLGENLTDDDTVREILCRGVDLIGRVGSSHAA” it was “not failed”.
Regarding “MSIAIRIATIGALCAASAALSGCGSVGAASGALAGAATGLVTANPAVGVGVGIAVQAATDEAVNRTMKQLHQNQQDAIAKAAGSLAVGEVKPWKVKNTLPLENGEGEVRVTRAYSTALALCKEFAFSVKDGDKADWYFANACQQGTHWKWASAEPAVDRWGNLQ”, the protein production result was “failed”.
The entry for “MSIDFYNQNASSFYASTVEVDSSSLLEQFTPYLPKGGSVLDAGCGSGRDSKRLIELGFHVDAFDASAALATLAQQLLGKPVRVATFMQFTSTLQYDGIWACASLLHVSKASLPDAFAHLASMLKSGGAFYCSFKYGQGEVERDGRSFTHCDEALLAELLTGSPLVIDKVWLTLEHHHHHH” is “failed”; for “MSIEPVFILVRPQMGENIGAAARAMLNFGLGRLRIVDPRDGWPNPKAVAMASGAGRLLDHAGLFPTVAEAIRDCDYVFATTARGRELTKPVMTPERAMAHGRALTGEGRRVGILFGPERTGLENEDVALANAIVTVPVNPEFFSLNLAQCVLLLAYEWRRQHDETPPEVIDMARVDFASGLEVEKLGD” it is “failed”; for “MSIEVPISIPKTLIIIPAYNEEEAIADTLTRLLELKQHFTALSICVINDGSQDKTAQIVKNFPVHLINLPYNLGIGSAVQTGYKYAYENGYDIAIQFDADGQHNPDDLYKIIQPIAEGQCDMVLGSRFTEKTAYKGSISRRIGIFYFTALLKVLTKQTFMDPTSGYRAINREVITIFAHNYPKDYPEPEVLIHLKKKKLRINEISVNMQERQGGQSSITPLKSAYYMIKVSLAILMQKIVKGLEHHHHHH” it is “failed”.
“MSIGFYANDNFMGKSHIMDKSGKPHIGISKYPVIITQAKQQKLRKAINEARESNDILMVDFPRQMLITEHDDELVKSLGESLEEDLEYLGAIFYGKSKYVDSITGKFSLWRSNNVKVNLEHHHHHH”: the protein production entry is on record as “failed”.
